Assay results as given in article PMC11806408, “Prodomain processing controls BMP‐10 bioactivity and targeting to fibrillin‐1 in latent conformation” (The FASEB Journal, 2025).
One block for each binder: values may come before it.

B1: BMPRII ectodomain, human IgG1‐Fc fusion (R&D Systems #811‐BR‐100/CF) (Fc fusion, UniProt Q13873 27-150, looked up)
chain: SQNQERLCAFKDPYQQDLGIGESRISHENGTILCSKGSTCYGLWEKSKGDINLVKQGCWSHIGDPQECHYEECVVTTTPPSIQNGTYRFCCCSTDLCNVNFTENFPPPDTTPLSPPHSFNRDET
notes: Bone morphogenetic protein receptor type II (BMPRII), ectodomain; 'human' in the sentence may qualify the IgG1 Fc only; also called BMP type II receptor; source: bought: R&D Systems (#811‐BR‐100/CF)
B2: processed BMP‐10 CPLX (tag‐free, HEK293) (complex, human)
chain 1: SPIMNLEQSPLEEDMSLFGDVFSEQDGVDFNTLLQSMKDEFLKTLNLSDIPTQDSAKVDPPEYMLELYNKFATDRTSMPSANIIRSFKNEDLFSQPVSFNGLRKYPLLFNVSIPHHEEVIMAELRLYTLVQRDRMIYDGVDRKITIFEVLESKGDNEGERNMLVLVSGEIYGTNSEWETFDVTDAIRRWQKSGSSTHQLEVHIESKHDEAEDASSGRLEIDTSAQNKHNPLLIVFSDDQSSDKERKEELNEMISHEQLPELDNLGLDSFSSGPGEEALLQMRSNIIYDSTARIRR
chain 2: NAKGNYCKRTPLYIDFKEIGWDSWIIAPPGYEAYECRGVCNYPLAEHLTPTKHAIIQALVHLKNSQKASKACCVPTKLEPISILYLDKGVVTYKFKYEGMAVSECGCR
modifications: N‐glycosylation
notes: Bone morphogenetic protein 10, human, prodomain (PD) up to the endogenous PPC cleavage site RIRR; calculated molecular weight without glycans 34.6 kDa; secreted through the BM40 signal peptide of the vector; Bone morphogenetic protein 10, human, growth factor (GF) released by PPC cleavage after RIRR; calculated molecular weight of the monomer 12.2 kDa; The SPR methods say only 'processed BMP‐10 …

Columns and labels:
[1] = biological target: B2; experiment: SPR; receptor ectodomains immobilised at 500 or 800 RUs on a CM5 chip by amine coupling; analytes 0 to 80 nM, 1:2 serial dilutions, 1× HBS‐EP; 1:1 model with mass transfer; apparent KD = kd/ka; three independent experiments; details: both partners purified
[2] = biological target: T1, ENG ectodomain (R&D Systems #1097‐EN‐025/CF) (human, UniProt P17813 26-586); experiment: as above; details: both partners purified
T1 construct: Endoglin (ENG), ectodomain; The methods read 'the human IgG1‐Fc‐fusion ectodomains of BMPRII, ALK‐1 as well as ENG'; also called endoglin; co‐receptor ENG; source: bought: R&D Systems (#1097‐EN‐025/CF); not shown: Fc (human IgG1)
T1 sequence (looked up): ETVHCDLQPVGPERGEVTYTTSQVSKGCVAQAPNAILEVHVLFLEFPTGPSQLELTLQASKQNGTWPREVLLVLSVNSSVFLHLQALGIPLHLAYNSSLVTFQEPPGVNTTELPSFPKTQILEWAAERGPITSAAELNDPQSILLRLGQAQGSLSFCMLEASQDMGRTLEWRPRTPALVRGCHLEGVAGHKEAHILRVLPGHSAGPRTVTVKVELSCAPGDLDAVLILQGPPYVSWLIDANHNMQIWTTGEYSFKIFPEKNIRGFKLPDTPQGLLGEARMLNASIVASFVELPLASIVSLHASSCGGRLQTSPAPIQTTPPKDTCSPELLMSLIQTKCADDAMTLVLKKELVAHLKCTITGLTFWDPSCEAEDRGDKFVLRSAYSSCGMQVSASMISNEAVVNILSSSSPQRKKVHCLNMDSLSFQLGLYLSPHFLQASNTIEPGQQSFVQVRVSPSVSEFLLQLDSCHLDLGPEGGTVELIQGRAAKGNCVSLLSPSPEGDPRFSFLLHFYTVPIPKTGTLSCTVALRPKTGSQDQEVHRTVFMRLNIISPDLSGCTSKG

[3] = biological target: T1, ENG ectodomain (R&D Systems …); experiment: as above; details: both partners purified; remark: listed apart in the source
[4] = biological target: B1; experiment: as above; details: both partners purified
[5] = biological target: T2, BMP‐10 PD (E. coli) (human, UniProt O95393 22-316); experiment: SPR; PDs of BMP‐9, BMP‐10 and N‐10/C‐9 fusion PD immobilised at 450 RUs on a CM5 chip by amine coupling; BMP‐10 GF 0 to 80 nM, 1:2 serial dilutions, 1× HBS‐EP; 1:1 model with mass transfer; apparent KD = kd/ka; details: both partners purified
T2 construct: also called BMP‐10 prodomain; E. coli‐derived BMP‐10 PD; source: E. coli BL21‐CodonPlus, purified (Ni‐NTA)
T2 sequence (looked up): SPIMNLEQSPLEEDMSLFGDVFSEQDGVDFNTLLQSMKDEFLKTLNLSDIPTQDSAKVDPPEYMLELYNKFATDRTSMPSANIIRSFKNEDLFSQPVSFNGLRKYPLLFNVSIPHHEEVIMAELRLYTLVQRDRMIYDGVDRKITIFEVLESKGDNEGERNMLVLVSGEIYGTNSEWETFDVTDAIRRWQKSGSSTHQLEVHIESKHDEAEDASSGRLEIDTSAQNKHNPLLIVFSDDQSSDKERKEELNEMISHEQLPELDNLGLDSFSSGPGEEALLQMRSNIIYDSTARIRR

[6] = biological target: T3, BMP‐9 PD (E. coli) (human, UniProt Q9UK05 23-319); experiment: as above; details: both partners purified
T3 construct: also called BMP‐9 prodomain; source: E. coli BL21‐CodonPlus, purified (Ni‐NTA)
T3 sequence (looked up): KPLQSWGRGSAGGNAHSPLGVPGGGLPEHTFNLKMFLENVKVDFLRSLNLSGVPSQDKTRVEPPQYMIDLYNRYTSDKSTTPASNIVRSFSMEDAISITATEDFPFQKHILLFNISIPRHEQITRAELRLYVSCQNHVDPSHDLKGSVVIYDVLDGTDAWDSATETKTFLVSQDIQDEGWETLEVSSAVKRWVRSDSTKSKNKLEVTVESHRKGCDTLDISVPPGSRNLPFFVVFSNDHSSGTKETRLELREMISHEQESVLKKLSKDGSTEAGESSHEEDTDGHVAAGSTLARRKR

[7] = biological target: the molecule itself; experiment: AUC; sedimentation velocity of elution fractions after SEC/MALS (S200 Increase, 1× PBS), 54 000 rpm, 280 nm, c(s) fit; PD dimer

Binder: B1
Kd [1]: 0.8 ± 0.1 nM
koff [1]: 0.00079 s⁻¹
kon [1]: 940000 M⁻¹ s⁻¹

Binder: B2
binding result [2]: binds

Kd [3]: 16.3 ± 2.9 nM
koff [3]: 0.008 s⁻¹
kon [3]: 490000 M⁻¹ s⁻¹
Kd [4]: 2.6 ± 0.6 nM
koff [4]: 0.0017 s⁻¹
kon [4]: 690000 M⁻¹ s⁻¹
Kd [5]: 5.2 ± 0.7 nM
koff [5]: 0.0024 s⁻¹
kon [5]: 500000 M⁻¹ s⁻¹
Kd [6]: 10.4 ± 2.5 nM
koff [6]: 0.0024 s⁻¹
kon [6]: 230000 M⁻¹ s⁻¹
B3: BMP‐10 GF (R&D Systems #2926‐BP‐025/CF) (ligand, human, UniProt O95393 317-424, looked up)
chain: NAKGNYCKRTPLYIDFKEIGWDSWIIAPPGYEAYECRGVCNYPLAEHLTPTKHAIIQALVHLKNSQKASKACCVPTKLEPISILYLDKGVVTYKFKYEGMAVSECGCR
notes: Bone morphogenetic protein 10, human, growth factor (GF) moiety that follows the PPC cleavage site RIRR; calculated molecular weight of the monomer 12.2 kDa, dimer 24.4 kDa; Disulfide-linked GF dimer; also called BMP‐10 growth factor; BMP‐10 GF dimer; source: bought: R&D Systems (#2926‐BP‐025/CF); called commercially available HEK293‐derived

B4: BMP‐10 PD (HEK293, from the processed BMP‐10 CPLX) (domain or fragment, human)
chain: SPIMNLEQSPLEEDMSLFGDVFSEQDGVDFNTLLQSMKDEFLKTLNLSDIPTQDSAKVDPPEYMLELYNKFATDRTSMPSANIIRSFKNEDLFSQPVSFNGLRKYPLLFNVSIPHHEEVIMAELRLYTLVQRDRMIYDGVDRKITIFEVLESKGDNEGERNMLVLVSGEIYGTNSEWETFDVTDAIRRWQKSGSSTHQLEVHIESKHDEAEDASSGRLEIDTSAQNKHNPLLIVFSDDQSSDKERKEELNEMISHEQLPELDNLGLDSFSSGPGEEALLQMRSNIIYDSTARIRR
modifications: N‐glycosylation
notes: Bone morphogenetic protein 10, human, prodomain (PD) up to the endogenous PPC cleavage site RIRR; band at 45 kDa, calculated molecular weight without glycans 34.6 kDa; The methods of SEC/MALS and AUC say only 'two fractions of BMP‐10'; also called separated BMP‐10 PD
stoichiometry N [7]: 2
